A word on the stoichiometry N: it is a count of units in the complex or per binding partner.

The target of test [1] is D-allulose 3-epimerase from Staphylococcus aureus (Staphylococcus aureus). Kind of test: SEC; purified SaDAE on Superdex 200 Increase 10/300 GL, 20 mM Tris-HCl pH 8.0, 100 mM NaCl, 1 mM DTT; markers conalbumin (75.0 kDa) and aldolase (158.0 kDa). In general terms: SEC sorts molecules by how far they enter the pores of the column.
Test [2] shares this target. Briefly: MALDI-TOF mass spectrometry; purified enzyme on HCCA matrix, acetonitrile-water 70:30 with 0.01% trifluoroacetic acid, linear mode.

Take “D-allulose 3-epimerase from Staphylococcus aureus (enzyme)”: the stoichiometry N in test [1] and in test [2] was 4 throughout.

Source of the values: article PMC6432756.
